Measurements from patent US20220395553A1 (COHBAR, published 2022).
Square brackets hold non-standard residues; d marks the D form. Ends that are not written are not given here.

Key:
[1] = molecular target: T1, SNAP tagged-CXC4 receptor labeled with terbium (Tag-lite CXCR4 cells, HEK293) (UniProt P61073 1-352, SNAP tag labeled with terbium fluorescent dye); experiment: HTRF competition on Tag-lite CXCR4 HEK293 cells; competitor labelled CXCL12
T1 construct: whole, on cells; Bought frozen cells (PerkinElmer-CisBio), HEK293 transiently expressing the receptor; also called terbium labeled CXCR receptor
T1 sequence (P61073 whole entry): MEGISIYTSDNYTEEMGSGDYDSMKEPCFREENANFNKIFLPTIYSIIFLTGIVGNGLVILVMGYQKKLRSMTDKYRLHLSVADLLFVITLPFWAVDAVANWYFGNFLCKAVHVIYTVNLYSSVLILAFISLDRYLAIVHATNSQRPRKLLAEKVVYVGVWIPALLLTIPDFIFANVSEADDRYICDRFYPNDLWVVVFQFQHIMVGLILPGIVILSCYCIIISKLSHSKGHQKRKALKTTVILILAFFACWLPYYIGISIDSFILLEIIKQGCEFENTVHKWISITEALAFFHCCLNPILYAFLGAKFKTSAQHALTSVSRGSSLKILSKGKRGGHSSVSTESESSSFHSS
Protocol: (§1) Peptides were initially prepared as 1 mM stock in H₂O and tested at a final concentration of 400 nM. Following the manufacture's protocol, a frozen aliquot of Tag-lite CXCR4 cells was thawed and immediately seeded onto 384-well plates in TLB. Immediately following the addition of cells, 400 nM peptide (final concentration) in TLB was added to the appropriate well. […] The plates were covered in aluminum foil and left at room temperature for 3 hours. Following the 3 hour incubation period, the plates were removed from the incubator and fluorescence measured using a Cytation 1 plate reader using a HTRF filter cube ([…]; BioTek; Winooski, Vt.).

[2] = molecular target: ProLink tagged human CXCR4 (C2C12 CXCR4 β-Arrestin cell line) (human, UniProt P61073 1-352); experiment: cell-based or functional assay
Sequence of ProLink tagged human CXCR4 (C2C12 CXCR4 β-Arrestin cell line) (P61073 whole entry): as above

[3] = molecular target: T1, SNAP tagged-CXC4 receptor labeled with …; experiment: HTRF competition on Tag-lite CXCR4 HEK293 cells; competitor labelled CXCL12; remark: listed apart in the source
Protocol: as §1, with “H₂O. […]” for “H₂O and tested at a final concentration of 400 nM.”, “TLB.” for “TLB. Immediately following the addition of cells, 400 nM peptide (final concentration) in TLB was added to the appropriate well.”

[4] = molecular target: T2, CXCR4 on cultured U937 and Jurkat cells (human, UniProt P61073 1-352); experiment: cell-based or functional assay
T2 sequence (P61073 whole entry): as above

[5] = molecular target: T2, CXCR4 on cultured U937 and Jurkat cells; experiment: cell-based or functional assay; remark: listed apart in the source

Binder | Percent Inhibition of CXCR4/CXCL12 Binding (400 nM peptide) [1] [%] | IC50 for Inhibition of CXCR4 Activation (β-Arrestin recruitment) [2] [nM] | IC50 [3] [nM] | Percent Inhibition of CXCL12 Mediated Migration (1.1 µM Test Article; Jurkat cells) [4] [%] | Percent Inhibition of CXCR4/CXCL12 Induced p-MEK (100 nM Test Article) [5] [%] | Percent Inhibition of CXCR4/CXCL12 Induced p-MEK (1 µM Test Article) [5] [%]
LDRYHHSVRSSLRPYTK [SEQ ID NO: 7] | 89 | 1.5 | 5 | 52 | 60 | 96
LRRYHHSVRSSLRPYSK [SEQ ID NO: 72] | 6 | 5 | 589 |  | 8 | 86
LRRYHHSVRSTLRPYTK [SEQ ID NO: 71] | 29 | 3 | 133 |  | 56 | 94
LERYNHS[dA]RSSLRPYTK [SEQ ID NO: 43] | 53 | 14 |  |  | 5 | 40
LRDYHHSVRSSLRPYTK [SEQ ID NO: 36] | -11 | > 1000 | 5990 |  | 22 | -5
LRRYHHSVDSSLRPYTK [SEQ ID NO: 66] | -5 | 27 | 563 |  | -7 | 13
[dA]ERYHHS[dA]RSSLRPYTK [SEQ ID NO: 35] | -13 | 291 | 6310 |  | -7 | -6
LRRYHHTVRSSLRPYTK [SEQ ID NO: 38] | 12 | 3 | 175 |  | 51 | 96
LERFHHS[dA]RSSLRPYTK [SEQ ID NO: 55] | 56 | 4 | 31 |  | 16 | 72
LERYHHSVRSSLRGYTK [SEQ ID NO: 80] | 88 | 4 | 6 | 71 | 52 | 96
LERYHHS[dA]RSSLRGYTK [SEQ ID NO: 81] | 81 | 3 | 23 |  | -16 | 20
